Assay results from article PMC10908796, “RTF2 controls replication repriming and ribonucleotide excision at the replisome” (Nature Communications, 2024).

T1: recombinant RNase H2 complex (hRNASEH2BCA) (human, UniProt Q5TBB1 1-312; Q8TDP1 1-164; O75792 1-299)
T1 construct: RNASEH2B, human, non-catalytic accessory subunit of RNase H2; RNASEH2C, human, non-catalytic accessory subunit of RNase H2; RNASEH2A, human, catalytic subunit of RNase H2; Heterotrimer formed beforehand by co-expression; also called RH2; source: E. coli, purified (GST pulldown, then AKTA FPLC); copies: + +
T1 sequence (looked up) 1: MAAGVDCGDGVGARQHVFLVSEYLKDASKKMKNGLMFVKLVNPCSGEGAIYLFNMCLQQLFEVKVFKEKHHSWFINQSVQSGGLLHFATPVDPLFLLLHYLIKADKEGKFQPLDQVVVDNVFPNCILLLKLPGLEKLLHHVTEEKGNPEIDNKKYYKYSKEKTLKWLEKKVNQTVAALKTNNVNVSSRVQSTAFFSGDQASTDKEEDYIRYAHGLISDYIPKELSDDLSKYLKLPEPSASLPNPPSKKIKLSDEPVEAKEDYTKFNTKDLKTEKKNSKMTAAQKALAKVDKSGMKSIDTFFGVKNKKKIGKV
T1 sequence (looked up) 2: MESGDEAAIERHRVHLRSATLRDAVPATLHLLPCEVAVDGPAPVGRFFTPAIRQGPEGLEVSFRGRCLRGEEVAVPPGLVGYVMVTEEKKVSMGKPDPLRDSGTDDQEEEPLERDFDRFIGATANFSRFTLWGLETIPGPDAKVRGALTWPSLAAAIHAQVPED
T1 sequence (looked up) 3: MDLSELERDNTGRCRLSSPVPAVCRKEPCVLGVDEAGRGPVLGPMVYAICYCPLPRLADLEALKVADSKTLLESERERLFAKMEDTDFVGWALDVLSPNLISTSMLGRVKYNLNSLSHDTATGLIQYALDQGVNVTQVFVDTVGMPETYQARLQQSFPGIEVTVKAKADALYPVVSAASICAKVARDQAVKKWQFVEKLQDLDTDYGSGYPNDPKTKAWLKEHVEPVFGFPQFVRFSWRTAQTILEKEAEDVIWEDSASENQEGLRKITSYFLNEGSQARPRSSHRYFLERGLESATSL


Assays:
[1] = target: T1, recombinant RNase H2 complex …; assay: co-IP; recombinant RNase H2 complex and RTF2 (0.5, 1, 2, 4 pmol) from E. coli mixed 2 hr at 4 °C in 20 mM HEPES pH 7.5, 1 mM DTT, 0.01% NP-40, 5% glycerol, 0.1 mg/mL BSA, 50 mM NaCl, benzonase; NaCl raised to 150 mM; Dynabeads 1 hr at 4 °C; immunoblot; conditions: both partners purified
[2] = target: T1, recombinant RNase H2 complex …; assay: co-IP; recombinant GFP-tagged RTF2 (0.5, 1, 2, 4 pmol) and RNase H2 complex from E. coli, immunoprecipitation as for untagged RTF2 (20 mM HEPES pH 7.5, 150 mM NaCl final, benzonase, Dynabeads); immunoblot; conditions: both partners purified

Row | Binder | binding result [1] | binding result [2]
1 | recombinant hRTF2 (natural protein, human, UniProt Q9BY42 1-306, looked up, Replication Termination Factor 2 (RTF2), human (hRTF2); source: E. coli, purified (IMAC, then AKTA FPLC)) MGCDGGTIPKRHELVKGPKKVEKVDKDAELVAQWNYCTLSQEILRRPIVACELGRLYNKDAVIEFLLDKSAEKALGKAASHIKSIKNVTELKLSDNPAWEGDKGNTKGDKHDDLQRARFICPVVGLEMNGRHRFCFLRCCGCVFSERALKEIKAEVCHTCGAAFQEDDVIMLNGTKEDVDVLKTRMEERRLRAKLEKKTKKPKAAESVSKPDVSEEAPGPSKVKTGKPEEASLDSREKKTNLAPKSTAMNESSSGKAGKPPCGATKRSIADSEESEAYKSLFTTHSSAKRSKEESAHWVTHTSYCF | binds | 
2 | recombinant GFP-tagged RTF2 (natural protein, human, UniProt Q9BY42 1-306, looked up, Replication Termination Factor 2 (RTF2), human (hRTF2 in the methods on recombinant proteins); also called GFP-RTF2; source: E. coli, purified) MGCDGGTIPKRHELVKGPKKVEKVDKDAELVAQWNYCTLSQEILRRPIVACELGRLYNKDAVIEFLLDKSAEKALGKAASHIKSIKNVTELKLSDNPAWEGDKGNTKGDKHDDLQRARFICPVVGLEMNGRHRFCFLRCCGCVFSERALKEIKAEVCHTCGAAFQEDDVIMLNGTKEDVDVLKTRMEERRLRAKLEKKTKKPKAAESVSKPDVSEEAPGPSKVKTGKPEEASLDSREKKTNLAPKSTAMNESSSGKAGKPPCGATKRSIADSEESEAYKSLFTTHSSAKRSKEESAHWVTHTSYCF |  | binds
